Assay results taken from patent publication US20050186203A1.
Each block holds one binder with its values, some of them ahead of it.

Key:
Details in all cases: remark: other sources report otherwise
[1] = target: T1, purified full-length human IGF-I receptor (affinity purified; directly coated or biotinylated and captured on streptavidin) (human), P08069; test: ELISA, hybridoma supernatant on plate-coated purified human IGF-I receptor, anti-mouse IgG Fc-HRP
[2] = target: T2, human IGF-I receptor of human tumor cells (MCF-7, NCI-H838, SaOS-2 and other lines) (human), P08069; test: displacement of pre-bound biotinylated IGF-I from MCF-7 cells by EM164 (10-100 µg/mL) at 4° C., 2 h; capture ELISA
[3] = target: T2, human IGF-I receptor of human tumor …; test: displacement of pre-bound biotinylated IGF-I from MCF-7 cells by EM164 (10-100 µg/mL) at 37° C., 30 min; capture ELISA
[4] = target: T1, purified full-length human IGF-I …; test: ELISA titration on biotinylated human IGF-I receptor captured on streptavidin; non-linear regression for one-site binding
[5] = target: T1, purified full-length human IGF-I …; test: ELISA titration on human IGF-I receptor, similar to that of the whole antibody

absorbance units (ELISA, 405 nm) (absorbance units) [1]: 1.2
% displacement of pre-bound biotinylated IGF-I [2]: 50%
% displacement of pre-bound biotinylated IGF-I [3]: 90%
Kd [4]: 0.1 nM
B1: murine anti-IGF-I receptor antibody EM164 (antibody, V domains shown)
VH: QVQLQQSGAELVKPGASVKLSCKASGYTFTSYWMHWVKQRPGQGLEWIGEINPSNGRTNYNEKFKRKATLTVDKSSSTAYMQLSSLTSEDSAVYYFARGRPDYYGSSKWYFDVWGAGTTVTVS
VL: DVLMTQTPLSLPVSLGDQASISCRSSQSIVHSNVNTYLEWYLQKPGQSPKLLIYKVSNRFSGVPDRFSGSGSGTDFTLRISRVEAEDLGIYYCFQGSHVPPTFGGGTKLEIKR
modifications: here or on the partner: biotinylated with PEO-maleimide-biotin reagent in the captured format

Kd [5]: 0.3 nM
B2: Fab fragment of EM164 antibody (Fab, V domains shown)
VH: B1 VH
VL: B1 VL
modifications: here or on the partner: biotinylated with PEO-maleimide-biotin reagent in the captured format
